Substrate: CC[C@H](C)[C@H](NC(C)=O)C(=O)NCC(=O)N[C@@H](CC(N)=O)C(=O)N[C@@H](CCCNC(=N)N)C(=O)Nc1ccc(COc2ccc3c(c2)OC2=C(/C=C/C4=[N+](C)c5ccccc5C4(C)C)CCCC2=C3)cc1
Assay: fluorogenic NIR assay, Michaelis-Menten fit
Type: biochemical, Homo sapiens
Conditions: Tris buffer pH 8, 37 °C, 20 nM hGzmA, cleaved after Arg

B1: human GzmA (hGzmA), active recombinant (Homo sapiens) (protein)
chain: IIGGNEVTPHSRPYMVLLSLDRKTICAGALIAKDWVLTAAHCNLNKRSQVILGAHSITREEPTKQIMLVKKEFPYPCYDPATREGDLKLLQLMEKAKINKYVTILHLPKKGDDVKPGTMCQVAGWGRTHNSASWSDTLREVNITIIDRKVCNDRNHYNFNPVIGMNMVCAGSLRGGRDSCNGDSGSPLLCEGVFRGVTSFGLENKCGDPRGPGVYILLSKKHLNWIIMTIKGAV
notes: active recombinant enzyme (not the pro-form), dimeric
For B1, the Km was 6.9±1.0×10^-6 M and the kcat was 0.26 ± 0.04 s⁻¹.
